The subject of data set [1] is HpoR (Mycobacterium smegmatis mc2 155). Put plainly: EMSA. (In general: In EMSA bound probe runs differently from free probe, usually more slowly.)
The subject of data set [2] is LtmA (Mycobacterium smegmatis mc2 155). Briefly: EMSA.
For data set [3], the target named is T1, HpoR (M. smegmatis mc2 155, UniProt A0R4J9 1-199).
T1 sequence: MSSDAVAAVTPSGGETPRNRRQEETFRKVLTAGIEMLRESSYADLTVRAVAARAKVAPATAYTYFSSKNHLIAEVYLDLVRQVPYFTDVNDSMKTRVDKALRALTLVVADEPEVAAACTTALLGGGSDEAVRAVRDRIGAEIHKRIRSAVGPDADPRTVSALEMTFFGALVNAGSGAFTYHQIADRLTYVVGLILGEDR
Put plainly: SPR. On the technique in general: Surface plasmon resonance follows binding to a sensor surface in real time, without labels.

In the case of Ms5860p, the Kd in data set [1] is 290 nM; in data set [2], 620 nM.

B1: LtmA (natural protein)
chain: MSDPAMESTRRRLSARQADTVERLGRAAVELISREGYAGLTVRRVAAEAGVGSATAYTYFSSKEHLVAEVFWRRLSAAPPAVHESPDPATRVVEVLQHIASLVADEPAFAGAVTTALLGKDPDVDALRQRIGADIRQRLVAALGPDVRIDVIEALELLYTGTMVWAGMGYDSYEQVVRRLEKSARLVLS
In turn, B1 showed a Kd in data set [3] of 7500 ± 800 nM.

As usually defined, the Kd is the equilibrium constant for the complex coming apart. Read a low Kd as tighter binding.
